Measurements reported in publication PMC5986196, “Arrest of trans-SNARE zippering uncovers loosely and tightly docked intermediates in membrane fusion” (The Journal of Biological Chemistry, 2018).

Target: T1, syntaxin 1a (syx(183–288)) (Rattus norvegicus, UniProt P32851 183-288)
T1 construct: also called N-terminally truncated variant of syntaxin; source: in n-octyl β-D-glucopyranoside
Test: co-purification by ion exchange chromatography (Mono Q); purified monomers mixed overnight at 4 °C, complex purified the next day on a Mono Q column
Details: both partners purified

T1 sequence (P32851 183-288): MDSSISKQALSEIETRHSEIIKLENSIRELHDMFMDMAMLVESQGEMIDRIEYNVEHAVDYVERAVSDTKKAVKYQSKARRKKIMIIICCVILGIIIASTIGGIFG

B1: syb(49–96), C-terminal fragment of synaptobrevin (domain or fragment, Rattus norvegicus, UniProt P63045 49-96, looked up)
chain: NVDKVLERDQKLSELDDRADALQAGASQFETSAAKLKRKYWWKNLKMM
notes: synaptobrevin 2 (syb), Rattus norvegicus, residues 49–96; also called synaptobrevin(49–96)
B1: binds.
